As a reminder, the Kd is a measure of binding affinity in units of concentration. Lower therefore signals higher affinity.

The source of these data is article PMC4822050, “Hemi-methylated DNA opens a closed conformation of UHRF1 to facilitate its histone recognition” (Nature Communications, 2016).

One data set concerns the target T1, SRA (human) (UniProt Q96T88).
T1 sequence: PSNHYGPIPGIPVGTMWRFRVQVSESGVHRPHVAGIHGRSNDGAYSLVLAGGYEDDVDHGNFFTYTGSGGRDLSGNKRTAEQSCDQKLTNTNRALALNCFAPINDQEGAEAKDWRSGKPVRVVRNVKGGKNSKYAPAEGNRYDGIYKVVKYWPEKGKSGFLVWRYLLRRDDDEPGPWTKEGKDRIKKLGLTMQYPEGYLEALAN
The data set is described as follows: FP. The settings on record: DNA length series; 5-methyl-dC (hemi-methylated CpG); ITC: 10 mM HEPES pH 8.0, 100 mM NaCl, 18 C; EMSA: 20 mM HEPES pH 7.5, 100 mM NaCl, 8% glycerol, 1 mM DTT, on ice; pull-down: 20 mM HEPES-NaOH pH 8.0, 100 mM ….

Another data set addresses T2, SRA-Spacer (human) (UniProt Q96T88).
T2 sequence: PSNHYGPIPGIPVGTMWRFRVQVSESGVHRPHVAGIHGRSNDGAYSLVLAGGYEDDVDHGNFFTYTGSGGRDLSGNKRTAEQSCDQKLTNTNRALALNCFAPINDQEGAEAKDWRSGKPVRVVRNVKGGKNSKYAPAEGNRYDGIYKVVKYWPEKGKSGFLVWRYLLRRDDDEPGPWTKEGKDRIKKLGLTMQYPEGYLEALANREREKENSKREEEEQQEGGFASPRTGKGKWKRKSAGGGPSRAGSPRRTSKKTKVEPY
The data set is described as follows: FP. The settings on record: DNA length series; 5-methyl-dC (hemi-methylated CpG); ITC: 10 mM HEPES pH 8.0, 100 mM NaCl, 18 C; EMSA: 20 mM HEPES pH 7.5, 100 mM NaCl, 8% glycerol, 1 mM DTT, on ice; pull-down: 20 mM HEPES-NaOH pH 8.0, 100 mM …. (In general: Mobility shift assays separate free from complexed probe on a gel.)

The target of a further data set is PHD-SRA of UHRF1 (human). Briefly: ITC; 0.05 mM protein in the cell, 0.5 mM protein or peptide in the syringe, iTC200, 18 °C, 10 mM HEPES pH 8.0, 100 mM NaCl. (Isothermal titration calorimetry measures the heat released or taken up as one component is titrated into another.)
The target in another data set is UHRF1 TTD, 134-285 (UniProt Q96T88). Briefly: ITC. The conditions noted are these: reference: unmodified Spacer642–664 peptide; sites S651.

UHRF1 Spacer, 642-664, sequence (Q96T88 134-285, change not shown): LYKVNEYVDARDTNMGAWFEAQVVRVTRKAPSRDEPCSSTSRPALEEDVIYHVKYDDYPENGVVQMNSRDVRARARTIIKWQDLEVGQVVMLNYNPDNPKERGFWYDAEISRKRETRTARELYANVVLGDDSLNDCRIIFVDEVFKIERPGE

Take FAM-16bp-HM-DNA: the Kd was 29.4 µM with SRA (human) and 0.39 µM with SRA-Spacer (human). For FAM-20bp-HM-DNA, in that order: 9.59 µM and 0.4 µM. As to “H3 peptide (1–17) (from UniProt P68431 2-18)”, the fold decrease in binding affinity against the PHD alone with PHD-SRA of UHRF1 (human) was 8 fold. As for “UHRF1 Spacer, 642-664 (from UniProt Q96T88) pS651 Spacer642–664 peptide”, the “binding against the reference” value with UHRF1 TTD, 134-285 was “weaker”.
